We go through 15 substances from article PMC4620744.

The target in assay [1] is H2A-H2B^30-130 (S. cerevisiae) (UniProt P04911). In words: ITC. For orientation: In ITC the heat of successive injections is recorded.
Assay [2] deals with Fluorescein-Spt16 MBD (Spt16^965-990) (S. cerevisiae) (UniProt P32558). In words: fluorescence polarisation. Background: Polarisation of emitted light reports the rotation of a fluorescent probe.
Assay [3] addresses full-length FACT (Spt16-Pob3 heterodimer) (S. cerevisiae) (UniProt P32558). In words: native gel or EMSA.
The target is the same in assay [4]. In words: ITC.
Assay [5] deals with full-length H2A-H2B (S. cerevisiae) (UniProt P04911). In words: ITC.
Assay [6] shares this target. In words: fluorescence polarisation.
For assay [7], the target named is H2A-H2B^30-130 bearing H2B M62A (S. cerevisiae) (UniProt P04911). In words: ITC.
For assay [8], the target named is H2A-H2B^30-130 bearing H2B Y45A (S. cerevisiae) (UniProt P04911). The experiment in a line: ITC.
The target in assay [9] is H2A-H2B^30-130 bearing H2B Y45A and M62A (S. cerevisiae) (UniProt P04911). In words: ITC.

What is called Kd is the equilibrium constant for the complex coming apart. A higher Kd goes with lower affinity. A word on the stoichiometry N: it is the number of molecules, sites or subunits per partner or assembly. A word on the IC50: it is the midpoint of a concentration-inhibition curve. For orientation: Ki means the equilibrium dissociation constant of an inhibitor or competing ligand from its target. Lower therefore signals a stronger hold on the target.

In assay [1], “Pob3-MBD DED509-511AAA (from UniProt Q04636 505-529) (peptide)” gave a fold decrease in binding against the unmutated peptide of 38 fold.
Turning to “Spt16-MBD EDEE987-990AAAA (from UniProt P32558 965-990) (peptide)”, the fold decrease in affinity against the unmutated peptide in assay [1] stood at 15 fold.
On the same count and under the same terms, with “Spt16-MBD SEDD975-978AAAA (from UniProt P32558 965-990) (peptide)” the figure was 20 fold.
“full-length H2A-H2B (from UniProt P04911 1-132; P02293 1-131) (complex)” came in with a Kd in [2] of 2.3 µM. In assay [3], the apparent KD of one of two EMSA binding events amounted to 0.1 µM, the apparent KD of the other of two EMSA binding events was 0.15 µM and the stoichiometry N was determined as 2. In assay [4], the KD of one of two independent binding sites amounted to 0.34 µM, the KD of the other of two independent binding sites stood at 1.62 µM and the stoichiometry N worked out at 2.
In assay [5], Spt16-C (domain or fragment) yielded a Kd of 0.8 µM and a stoichiometry N of 1.
Substance “Spt16-MBD SEEE965-968AAAA (from UniProt P32558 965-990) (peptide)” had a fold decrease in affinity against the unmutated peptide in [1] of 12 fold.
Turning to “Spt16 E968A (from UniProt P32558 965-990) (peptide)”, the Kd in [1] is 5 µM.
The substance “Pob3-MBD F512A (from UniProt Q04636 505-529) (peptide)” returned a fold decrease in binding against the unmutated peptide in assay [1] above 100 fold.
Same read-out and setting: with “Spt16-MBD Y972A (from UniProt P32558 965-990) (peptide)” the figure was 48 fold.
For the substance “Spt16-MBD (Spt16^965-990) (from UniProt P32558 965-990) (peptide)”, in assay [6], the IC50 was determined as 21.1 µM and the Ki worked out at 2.3 µM.
As for “Spt16-MBD DES981-983AAA (from UniProt P32558 965-990) (peptide)”, the fold decrease in affinity against the unmutated peptide in assay [1] worked out at 10 fold.
In the case of “Spt16^958-990 (from UniProt P32558 958-990) (peptide)”, the figures for the fold decrease in binding against H2A-H2B^30-130 in assay [7], in assay [8] and in [9] were 12 fold, 25 fold and 42 fold, respectively.
In [1], “Pob3-MBD DNDAD517-521AAAAA (from UniProt Q04636 505-529) (peptide)” yielded a fold decrease in binding against the unmutated peptide of 17 fold.
Turning to “Pob3-MBD (Pob3^505-529) (from UniProt Q04636 505-529) (peptide)”, the IC50 in assay [6] worked out at 15.7 µM. The Ki in assay [6] turned out to be 1.3 µM. Besides, the fold decrease in affinity against H2A-H2B^30-130 in assay [7] stood at 9 fold; in assay [8], 12 fold; in assay [9], 41 fold.
Turning to “Pob3 D509A (from UniProt Q04636 505-529) (peptide)”, the Kd in assay [1] was found to be 35 µM.
